The target in the assay is IL-13 (UniProt P35225). Nature of the assay: SPR. Background: Surface plasmon resonance follows binding to a sensor surface in real time, without labels.
IL-13, sequence (P35225 35-143): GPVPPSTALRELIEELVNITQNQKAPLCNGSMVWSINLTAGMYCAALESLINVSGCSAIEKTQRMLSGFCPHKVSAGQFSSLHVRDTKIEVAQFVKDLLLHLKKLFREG

B1: Fab region of tralokinumab (Fab, V domains shown)
VH: QVQLVQSGAEVKKPGASVKVSCKASGYTFTNYGLSWVRQAPGQGLEWMGWISANNGDTNYGQEFQGRVTMTTDTSTSTAYMELRSLRSDDTAVYYCARDSSSSWARWFFDLWGRGTLVTVSS
VL: SYVLTQPPSVSVAPGKTARITCGGNIIGSKLVHWYQQKPGQAPVLVIYDDGDRPSGIPERFSGSNSGNTATLTISRVEAGDEADYYCQVWDTGSDPVVFGGGTKLTVL
Consider B1, for which the binding result is listed as “binds”.
